Molecular target: FITC-labeled bovine type I Collagen (Chondrex 4001) (bovine, UniProt P02453 162-1217; P02465 80-1117, FITC label (FITC-Col labeled at a 1:1 molar ratio); labelled residues not stated | FITC label (FITC-Col labeled at a 1:1 molar ratio); labelled residues not stated)
Assay: cell-based or functional assay

Sequence of FITC-labeled bovine type I Collagen (Chondrex 4001) (P02453 162-1217, chain 1 of 2): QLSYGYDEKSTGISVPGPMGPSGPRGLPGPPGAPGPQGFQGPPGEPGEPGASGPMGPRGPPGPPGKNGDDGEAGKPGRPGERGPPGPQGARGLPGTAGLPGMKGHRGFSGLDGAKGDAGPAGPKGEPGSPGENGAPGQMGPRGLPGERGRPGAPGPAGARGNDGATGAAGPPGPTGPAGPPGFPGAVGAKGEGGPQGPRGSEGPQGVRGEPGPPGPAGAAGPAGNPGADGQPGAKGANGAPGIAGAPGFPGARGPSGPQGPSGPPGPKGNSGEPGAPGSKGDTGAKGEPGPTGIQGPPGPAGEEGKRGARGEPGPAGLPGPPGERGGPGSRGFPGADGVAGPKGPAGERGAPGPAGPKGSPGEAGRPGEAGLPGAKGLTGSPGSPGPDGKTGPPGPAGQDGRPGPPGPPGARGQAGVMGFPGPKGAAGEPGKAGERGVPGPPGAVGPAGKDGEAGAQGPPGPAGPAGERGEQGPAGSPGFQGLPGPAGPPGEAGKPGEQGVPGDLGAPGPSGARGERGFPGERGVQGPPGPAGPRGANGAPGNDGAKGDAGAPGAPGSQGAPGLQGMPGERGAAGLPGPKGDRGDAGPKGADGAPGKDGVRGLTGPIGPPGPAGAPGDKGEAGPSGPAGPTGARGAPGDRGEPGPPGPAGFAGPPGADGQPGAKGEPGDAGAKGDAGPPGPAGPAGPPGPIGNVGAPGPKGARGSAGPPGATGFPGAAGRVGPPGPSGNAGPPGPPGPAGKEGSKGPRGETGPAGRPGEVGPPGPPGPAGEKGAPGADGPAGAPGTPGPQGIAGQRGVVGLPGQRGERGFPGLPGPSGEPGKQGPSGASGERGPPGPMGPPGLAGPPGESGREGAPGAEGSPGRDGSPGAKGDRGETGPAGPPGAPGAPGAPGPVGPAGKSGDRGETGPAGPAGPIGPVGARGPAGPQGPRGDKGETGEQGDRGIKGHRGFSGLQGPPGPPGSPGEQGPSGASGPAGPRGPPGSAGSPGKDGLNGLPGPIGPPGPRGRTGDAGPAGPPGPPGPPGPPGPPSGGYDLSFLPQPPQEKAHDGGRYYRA
Sequence of FITC-labeled bovine type I Collagen (Chondrex 4001) (P02465 80-1117, chain 2 of 2): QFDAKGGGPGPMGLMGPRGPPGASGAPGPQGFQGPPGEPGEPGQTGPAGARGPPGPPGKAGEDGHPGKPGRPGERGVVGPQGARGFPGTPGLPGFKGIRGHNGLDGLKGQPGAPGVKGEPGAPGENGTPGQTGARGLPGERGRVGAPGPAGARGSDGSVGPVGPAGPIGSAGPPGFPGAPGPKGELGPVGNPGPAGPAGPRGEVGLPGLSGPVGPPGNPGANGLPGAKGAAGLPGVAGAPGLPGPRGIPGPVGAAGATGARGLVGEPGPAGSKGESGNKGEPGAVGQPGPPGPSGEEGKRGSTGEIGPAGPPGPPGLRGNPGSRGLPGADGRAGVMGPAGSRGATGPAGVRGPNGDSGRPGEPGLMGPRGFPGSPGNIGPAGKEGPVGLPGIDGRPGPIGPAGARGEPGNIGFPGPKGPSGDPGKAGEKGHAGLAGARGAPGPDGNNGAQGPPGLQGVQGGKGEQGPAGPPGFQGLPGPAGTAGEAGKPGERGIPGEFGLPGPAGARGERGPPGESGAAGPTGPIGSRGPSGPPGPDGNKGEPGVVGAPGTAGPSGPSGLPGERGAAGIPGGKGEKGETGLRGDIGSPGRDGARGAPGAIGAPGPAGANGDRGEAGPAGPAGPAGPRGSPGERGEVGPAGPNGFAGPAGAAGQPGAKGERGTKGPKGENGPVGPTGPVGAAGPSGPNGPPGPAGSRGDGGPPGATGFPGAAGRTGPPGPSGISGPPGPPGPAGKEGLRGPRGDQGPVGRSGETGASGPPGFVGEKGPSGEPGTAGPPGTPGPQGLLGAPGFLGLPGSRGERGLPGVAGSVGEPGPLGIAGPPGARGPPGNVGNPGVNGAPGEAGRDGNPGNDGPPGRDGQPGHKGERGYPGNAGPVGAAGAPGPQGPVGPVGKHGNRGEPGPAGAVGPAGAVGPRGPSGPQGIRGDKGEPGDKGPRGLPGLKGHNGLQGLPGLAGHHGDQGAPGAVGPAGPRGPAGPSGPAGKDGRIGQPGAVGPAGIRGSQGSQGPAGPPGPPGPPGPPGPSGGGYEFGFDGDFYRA

B1: TEM8 on TEM8 overexpressing CHO cells (CHO-TEM8), wild type (receptor)
chain: not shown
How did the “FITC-col internalization assay, flow cytometry of FITC-col trapped inside cells (Fig. 4e)” value turn out when B1 was run?
The value was 5 fold.

What about the “soluble FITC released into the culture supernatant from a FITC-Col gel, 48 h (Fig. 4d)” value of the same binder?
The value was about 3 fold.
